From PMC3474823

Biological target: HA-LIMK2 (pcDNA3-(HA)2-LIMK2) (UniProt P53671)
Sequence of UniProt P53671 (P53671 whole entry): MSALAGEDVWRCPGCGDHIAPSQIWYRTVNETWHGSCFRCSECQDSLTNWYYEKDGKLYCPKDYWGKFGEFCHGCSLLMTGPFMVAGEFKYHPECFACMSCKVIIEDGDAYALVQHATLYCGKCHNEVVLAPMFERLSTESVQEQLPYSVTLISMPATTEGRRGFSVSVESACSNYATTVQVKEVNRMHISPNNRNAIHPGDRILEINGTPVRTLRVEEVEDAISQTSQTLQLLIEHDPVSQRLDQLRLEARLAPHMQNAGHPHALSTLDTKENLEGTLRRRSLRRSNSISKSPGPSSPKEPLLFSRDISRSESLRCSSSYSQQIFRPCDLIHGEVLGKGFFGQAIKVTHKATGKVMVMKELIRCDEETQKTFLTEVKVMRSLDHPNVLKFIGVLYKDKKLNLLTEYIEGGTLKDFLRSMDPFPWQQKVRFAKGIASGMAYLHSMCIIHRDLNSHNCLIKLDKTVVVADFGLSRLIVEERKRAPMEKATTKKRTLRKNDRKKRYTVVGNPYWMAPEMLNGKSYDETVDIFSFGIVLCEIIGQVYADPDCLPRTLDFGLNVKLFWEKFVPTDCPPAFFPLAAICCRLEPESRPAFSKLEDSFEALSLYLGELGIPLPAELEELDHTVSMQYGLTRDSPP

flag-SecPH (p3XFlag-SecPH) (domain or fragment)
kinase activity of anti-HA-LIMK2 immunoprecipitate on GST-cofilin (32P, P-cofilin), cells cotransfected with SecPH against the control Galectin-3: 20%
